Read-outs that look alike come from different tables or passages of the source.
What was measured:
[1] = biological target: T1, B cell maturation antigen (BCMA) (UniProt Q02223 1-184, limits assumed); experiment: cell-based or functional assay
T1 sequence (looked up): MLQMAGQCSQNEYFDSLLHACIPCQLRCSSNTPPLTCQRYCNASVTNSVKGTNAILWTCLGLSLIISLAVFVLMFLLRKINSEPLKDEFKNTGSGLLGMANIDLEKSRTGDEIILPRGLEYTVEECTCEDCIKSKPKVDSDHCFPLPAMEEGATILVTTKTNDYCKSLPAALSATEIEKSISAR

[2] = biological target: T1, B cell maturation antigen (BCMA); experiment: cell-based or functional assay; remark: listed apart in the source
[3] = biological target: T1, B cell maturation antigen (BCMA); experiment: cell-based or functional assay; remark: listed apart in the source
[4] = biological target: T2, CD123 (human, UniProt P26951 19-378); experiment: flow cytometry, % Binding on Kasumi-3 cells (CD123 expressing cell line)
T2 construct: whole, on cells; also called IL3RA; interleukin-3 receptor
Source text: (§1) Cells were visualized on forward and sideward scatter and doublets were excluded. No secondary antibody control was used to establish background fluorescence and to gate on specific population. Background value was subtracted from main samples to get specific binding value.

[5] = biological target: T2, CD123; experiment: flow cytometry, % binding of bispecific antibody to Kasumi-3 cells (CD123 expressing)
Source text: as §1

[6] = biological target: T2, CD123; experiment: flow cytometry, % Binding on Kasumi-3 cells (TAA expressing cell line); same graph as FIG. 30A
Source text: as §1

[7] = biological target: T2, CD123; experiment: flow cytometry, % Binding; graph under the Kasumi-3 histogram, Kasumi-3 cells by legend paragraph 83
Source text: as §1

[8] = biological target: T1, B cell maturation antigen (BCMA); experiment: cell-based or functional assay; remark: listed apart in the source
[9] = biological target: T3, CD33 (human, UniProt P20138 18-364); experiment: FACS binding to MOLM-13 cells (CD33 high), MFI
T3 construct: whole, on cells; also called CD33 on MOLM-13, Kasumi-1, OCI-AML-3 and Kasumi-3 cells

[10] = biological target: T3, CD33; experiment: FACS binding to Kasumi-1 cells (CD33 med), MFI
[11] = biological target: T3, CD33; experiment: FACS binding to OCI-AML-3 cells (CD33 low), MFI
[12] = biological target: T1, B cell maturation antigen (BCMA); experiment: cell-based or functional assay; remark: listed apart in the source

T3 sequence (P20138 18-364): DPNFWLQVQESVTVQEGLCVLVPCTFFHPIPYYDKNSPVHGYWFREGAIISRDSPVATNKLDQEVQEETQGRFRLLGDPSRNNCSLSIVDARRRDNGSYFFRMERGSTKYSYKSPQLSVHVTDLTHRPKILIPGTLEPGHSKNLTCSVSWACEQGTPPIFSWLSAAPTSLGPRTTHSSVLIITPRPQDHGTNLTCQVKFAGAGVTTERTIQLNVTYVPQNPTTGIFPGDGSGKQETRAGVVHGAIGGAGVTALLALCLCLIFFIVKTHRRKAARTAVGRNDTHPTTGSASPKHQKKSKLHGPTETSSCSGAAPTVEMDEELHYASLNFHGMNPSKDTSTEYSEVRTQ
T2 sequence (P26951 19-378): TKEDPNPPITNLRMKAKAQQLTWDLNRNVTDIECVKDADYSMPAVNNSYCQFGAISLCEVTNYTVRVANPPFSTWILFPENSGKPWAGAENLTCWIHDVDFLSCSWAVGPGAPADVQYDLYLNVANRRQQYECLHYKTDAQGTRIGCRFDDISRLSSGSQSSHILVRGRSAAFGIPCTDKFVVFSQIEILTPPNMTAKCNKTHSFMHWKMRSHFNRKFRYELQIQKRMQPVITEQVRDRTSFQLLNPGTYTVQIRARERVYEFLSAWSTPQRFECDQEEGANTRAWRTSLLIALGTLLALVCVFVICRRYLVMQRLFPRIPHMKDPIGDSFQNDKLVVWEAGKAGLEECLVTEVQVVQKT

B1: anti-TRGV9/anti-BCMA bispecific antibody BCV9B106 (B3) (bispecific antibody, human IgG1, kappa, L234A L235A)
scFv-Fc: DIQMTQSPASLSASVGETVTITCRASENIHNYLAWYQQKQGKSPQLLVYNAKTLADGVPSRFSGSGSGTQYSLKINSLQPEDFGNYYCQHFWSYPLTFGAGTKLELKGGSEGKSSGSGSESKSTGGSQGQMQQSGAELVKPGASVKLSCKTSGFTFSSNYISWLKQKPGQSLEWIAWIHGGTGGIGYNQKFTGKAQLTVDTSSTTAYMQFSSLTTEDSAIYYCARRGYGAWFAYWGQGTLVTVSAEPKSSDKTHTCPPCPAPEAAGGPSVFLFPPKPKDTLMISRTPEVTCVVVSVSHEDPEVKFNWYVDGVEVHNAKTKPREEQYNSTYRVVSVLTVLHQDWLNGKEYKCKVSNKALPAPIEKTISKAKGQPREPQVYVYPPSREEMTKNQVSLTCLVKGFYPSDIAVEWESNGQPENNYKTTPPVLDSDGSFALVSKLTVDKSRWQQGNVFSCSVMHEALHNHYTQKSLSLSPGK
heavy: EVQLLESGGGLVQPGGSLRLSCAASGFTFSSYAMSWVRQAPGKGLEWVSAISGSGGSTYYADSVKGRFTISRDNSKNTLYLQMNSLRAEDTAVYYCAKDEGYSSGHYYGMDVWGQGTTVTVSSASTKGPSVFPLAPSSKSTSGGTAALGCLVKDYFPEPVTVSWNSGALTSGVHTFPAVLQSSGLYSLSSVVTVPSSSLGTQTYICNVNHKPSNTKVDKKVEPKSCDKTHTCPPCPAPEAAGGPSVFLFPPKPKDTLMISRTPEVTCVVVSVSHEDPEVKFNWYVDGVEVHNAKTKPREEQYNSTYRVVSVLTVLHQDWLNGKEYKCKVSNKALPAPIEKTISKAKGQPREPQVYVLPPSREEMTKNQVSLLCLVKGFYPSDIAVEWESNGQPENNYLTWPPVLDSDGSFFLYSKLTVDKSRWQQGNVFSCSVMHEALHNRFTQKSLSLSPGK
light: EIVLTQSPGTLSLSPGERATLSCRASQSISSSFLTWYQQKPGQAPRLLIYGASSRATGIPDRFSGGGSGTDFTLTISRLEPEDFAVYYCQHYGSSPMYTFGQGTKLEIKRTVAAPSVFIFPPSDEQLKSGTASVVCLLNNFYPREAKVQWKVDNALQSGNSQESVTEQDSKDSTYSLSSTLTLSKADYEKHKVYACEVTHQGLSSPVTKSFNRGEC
- EC50 of γδ T-cell mediated cytotoxicity of H929 tumor cells [1]: 33.7 nM

B2: anti-TRGV9/anti-BCMA bispecific antibody (HC1: VG9B420-LH-scFv; HC2: BCMA-Fab (BCMB519-Fab)) (BCV9B71.001) (bispecific antibody, human IgG1, kappa, L234A L235A)
scFv: EIVMTQSPGTLSLSPGDRATLSCRASQSVASSYLAWYQQKPGQSPRLLIYGASSRATGIPDRFSGSGSGTDFTLTISRLEPEDFAVYYCQQYGSSPPYTFGQGTRLEIKGGSEGKSSGSGSESKSTGGSEVQLVESGGGLVKPGGSLRLSCSASGFTFSNYDMNWVRQAPGKGLEWVSSISSSSSYIYYADSVKGRFTISRDNAKNSLYLQMNSLRAEDTAVYHCARDVGVTTDYYYYGMDVWGQGTMVTVSSEPKSSDKTHTCPPCPAPEAAGGPSVFLFPPKPKDTLMISRTPEVTCVVVSVSHEDPEVKFNWYVDGVEVHNAKTKPREEQYNSTYRVVSVLTVLHQDWLNGKEYKCKVSNKALPAPIEKTISKAKGQPREPQVYVYPPSREEMTKNQVSLTCLVKGFYPSDIAVEWESNGQPENNYKTTPPVLDSDGSFALVSKLTVDKSRWQQGNVFSCSVMHEALHNHYTQKSLSLSPGK
heavy: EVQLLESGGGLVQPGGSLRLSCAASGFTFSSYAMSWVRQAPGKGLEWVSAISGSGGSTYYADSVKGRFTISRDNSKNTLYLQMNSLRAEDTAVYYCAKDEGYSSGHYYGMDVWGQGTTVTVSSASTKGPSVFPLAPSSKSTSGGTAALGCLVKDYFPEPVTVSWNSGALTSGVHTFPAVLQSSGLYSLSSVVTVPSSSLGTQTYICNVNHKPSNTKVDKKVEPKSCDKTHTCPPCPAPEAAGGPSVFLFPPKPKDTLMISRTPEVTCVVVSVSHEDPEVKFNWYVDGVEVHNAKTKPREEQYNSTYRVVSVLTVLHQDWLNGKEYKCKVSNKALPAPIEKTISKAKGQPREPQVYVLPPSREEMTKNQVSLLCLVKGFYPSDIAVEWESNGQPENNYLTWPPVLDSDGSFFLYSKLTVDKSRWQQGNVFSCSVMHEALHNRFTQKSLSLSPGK
light: EIVLTQSPGTLSLSPGERATLSCRASQSISSSFLTWYQQKPGQAPRLLIYGASSRATGIPDRFSGGGSGTDFTLTISRLEPEDFAVYYCQHYGSSPMYTFGQGTKLEIKRTVAAPSVFIFPPSDEQLKSGTASVVCLLNNFYPREAKVQWKVDNALQSGNSQESVTEQDSKDSTYSLSSTLTLSKADYEKHKVYACEVTHQGLSSPVTKSFNRGEC
- EC50 of γδ T-cell mediated cytotoxicity of H929 tumor cells [2]: 3.2 nM

B3: anti-TRGV9/anti-BCMA bispecific antibody (VG9SB10SC1087_P18_C12-Fab RF, BCMA-scFv (BCMB519-scFv)) (BCV9B101.001) (bispecific antibody, human IgG1, kappa, L234A L235A)
heavy: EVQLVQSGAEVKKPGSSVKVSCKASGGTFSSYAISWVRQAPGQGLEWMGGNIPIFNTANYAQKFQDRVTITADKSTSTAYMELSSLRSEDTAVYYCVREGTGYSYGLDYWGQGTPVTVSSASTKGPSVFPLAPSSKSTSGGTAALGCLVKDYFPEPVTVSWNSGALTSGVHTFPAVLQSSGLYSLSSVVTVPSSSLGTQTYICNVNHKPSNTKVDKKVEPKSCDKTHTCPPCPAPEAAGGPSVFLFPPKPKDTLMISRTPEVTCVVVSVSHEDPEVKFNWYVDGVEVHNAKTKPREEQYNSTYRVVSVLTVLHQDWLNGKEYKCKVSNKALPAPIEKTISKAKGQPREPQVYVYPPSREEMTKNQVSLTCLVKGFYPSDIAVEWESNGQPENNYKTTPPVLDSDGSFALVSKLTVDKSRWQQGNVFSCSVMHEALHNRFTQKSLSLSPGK
light: EIVMTQSPLSSPVTLGQPASISCRSSQSLIHSDGNTYLSWLQQRPGQPPRLLIYKISNRFSGVPDRFSGSGAGTDFTLKISRVEAEDVGIYYCMQAKQFPITFGQGTKVDIKRTVAAPSVFIFPPSDEQLKSGTASVVCLLNNFYPREAKVQWKVDNALQSGNSQESVTEQDSKDSTYSLSSTLTLSKADYEKHKVYACEVTHQGLSSPVTKSFNRGEC
scFv: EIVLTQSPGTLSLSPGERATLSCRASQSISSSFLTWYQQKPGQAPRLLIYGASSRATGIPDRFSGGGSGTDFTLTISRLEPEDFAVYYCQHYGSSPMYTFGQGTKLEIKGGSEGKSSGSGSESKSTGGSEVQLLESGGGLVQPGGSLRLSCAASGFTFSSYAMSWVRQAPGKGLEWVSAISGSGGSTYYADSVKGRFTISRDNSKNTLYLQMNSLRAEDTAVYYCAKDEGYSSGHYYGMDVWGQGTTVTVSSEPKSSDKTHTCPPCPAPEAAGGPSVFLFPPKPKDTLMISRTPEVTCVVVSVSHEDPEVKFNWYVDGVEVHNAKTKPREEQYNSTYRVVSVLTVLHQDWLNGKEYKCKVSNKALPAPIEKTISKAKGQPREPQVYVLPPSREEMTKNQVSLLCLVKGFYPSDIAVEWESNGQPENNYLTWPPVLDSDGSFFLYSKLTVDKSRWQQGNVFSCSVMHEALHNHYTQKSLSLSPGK
- EC50 of γδ T-cell mediated cytotoxicity of H929 tumor cells [3]: 2.65 nM

B4: VG1 (anti-TRGV9/anti-CD123 bispecific antibody) (bispecific antibody, human IgG4 S228P, kappa, F234A L235A)
heavy 1: EVQLQQSGAELARPGASVKLSCKASGFTFTDHYINWVKQRTGQGLEWIGQIYPGDGNTYYNQKFKGKATLTADKSSSTAYMQLSSLTSEDSAVYFCAPNYGDYTIDFWGQGTSVTVSSASTKGPSVFPLAPCSRSTSESTAALGCLVKDYFPEPVTVSWNSGALTSGVHTFPAVLQSSGLYSLSSVVTVPSSSLGTKTYTCNVDHKPSNTKVDKRVESKYGPPCPPCPAPEAAGGPSVFLFPPKPKDTLMISRTPEVTCVVVDVSQEDPEVQFNWYVDGVEVHNAKTKPREEQFNSTYRVVSVLTVLHQDWLNGKEYKCKVSNKGLPSSIEKTISKAKGQPREPQVYTLPPSQEEMTKNQVSLSCAVKGFYPSDIAVEWESNGQPENNYKTTPPVLDSDGSFFLVSRLTVDKSRWQEGNVFSCSVMHEALHNRFTQKSLSLSLGK
light 1: DIVMSQSPSSLAVSVGEKVTMSCKSSQSLLYSSNQKNYLAWYQQKPGQSPKLLIYWASTRESGVPDRFTGSGSGTDFTLTISSVKAEDLAVYYCQQYYRYHTFGTGTKLEIKRTVAAPSVFIFPPSDEQLKSGTASVVCLLNNFYPREAKVQWKVDNALQSGNSQESVTEQDSKDSTYSLSSTLTLSKADYEKHKVYACEVTHQGLSSPVTKSFNRGEC
heavy 2: EVQLVQSGAEVKKPGESLKISCKGSGYSFTSYWISWVRQMPGKGLEWMGIIDPSDSDTRYSPSFQGQVTISADKSISTAYLQWSSLKASDTAMYYCARGDGSTDLDYWGQGTLVTVSSASTKGPSVFPLAPCSRSTSESTAALGCLVKDYFPEPVTVSWNSGALTSGVHTFPAVLQSSGLYSLSSVVTVPSSSLGTKTYTCNVDHKPSNTKVDKRVESKYGPPCPPCPAPEAAGGPSVFLFPPKPKDTLMISRTPEVTCVVVDVSQEDPEVQFNWYVDGVEVHNAKTKPREEQFNSTYRVVSVLTVLHQDWLNGKEYKCKVSNKGLPSSIEKTISKAKGQPREPQVYTLPPSQEEMTKNQVSLWCLVKGFYPSDIAVEWESNGQPENNYKTTPPVLDSDGSFFLYSRLTVDKSRWQEGNVFSCSVMHEALHNHYTQKSLSLSLGK
light 2: EIVLTQSPGTLSLSPGERATLSCRASQSVSSSYLAWYQQKPGQAPRLLIYGASSRATGIPDRFSGSGSGTDFTLTISRLEPEDFAVYYCQQDYGFPWTFGQGTKVEIKRTVAAPSVFIFPPSDEQLKSGTASVVCLLNNFYPREAKVQWKVDNALQSGNSQESVTEQDSKDSTYSLSSTLTLSKADYEKHKVYACEVTHQGLSSPVTKSFNRGEC
notes: Full-length human IgG4 in knob-into-hole format; also called anti-TRGV9×CD123; Vγ9/CD123 bispecific
- EC50 [4]: 0.43 nM
- EC50 [5]: 0.354 nM
- EC50 (read off the curve) [5]: ~0.05 µg/mL
- EC50 [6]: 0.43 nM
- EC50 [7]: 0.354 nM

B5: anti-TRGV9/anti-BCMA bispecific antibody (VG9SB10SC1087_P18_D08-Fab RF, BCMA-scFv (BCMB519-scFv)) (BCV9B100.001) (bispecific antibody, human IgG1, kappa, L234A L235A)
heavy: EVQLVQSGAEVKKPGSSVKVSCKASGDTFNNYAISWVRQAPGQGLEWMGGIIPFFGTPDYAQKFQGRVTITADKSTSTAYMELSGLRSEDTAVYYCARPGSGSPDYYYYDMDVWGQGTTVTVSSASTKGPSVFPLAPSSKSTSGGTAALGCLVKDYFPEPVTVSWNSGALTSGVHTFPAVLQSSGLYSLSSVVTVPSSSLGTQTYICNVNHKPSNTKVDKKVEPKSCDKTHTCPPCPAPEAAGGPSVFLFPPKPKDTLMISRTPEVTCVVVSVSHEDPEVKFNWYVDGVEVHNAKTKPREEQYNSTYRVVSVLTVLHQDWLNGKEYKCKVSNKALPAPIEKTISKAKGQPREPQVYVYPPSREEMTKNQVSLTCLVKGFYPSDIAVEWESNGQPENNYKTTPPVLDSDGSFALVSKLTVDKSRWQQGNVFSCSVMHEALHNRFTQKSLSLSPGK
light: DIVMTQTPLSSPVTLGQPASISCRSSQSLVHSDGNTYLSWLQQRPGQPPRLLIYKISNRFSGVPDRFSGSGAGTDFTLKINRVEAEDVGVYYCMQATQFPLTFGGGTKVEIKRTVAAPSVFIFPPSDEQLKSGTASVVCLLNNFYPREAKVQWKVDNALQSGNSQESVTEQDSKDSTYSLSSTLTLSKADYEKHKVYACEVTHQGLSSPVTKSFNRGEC
scFv: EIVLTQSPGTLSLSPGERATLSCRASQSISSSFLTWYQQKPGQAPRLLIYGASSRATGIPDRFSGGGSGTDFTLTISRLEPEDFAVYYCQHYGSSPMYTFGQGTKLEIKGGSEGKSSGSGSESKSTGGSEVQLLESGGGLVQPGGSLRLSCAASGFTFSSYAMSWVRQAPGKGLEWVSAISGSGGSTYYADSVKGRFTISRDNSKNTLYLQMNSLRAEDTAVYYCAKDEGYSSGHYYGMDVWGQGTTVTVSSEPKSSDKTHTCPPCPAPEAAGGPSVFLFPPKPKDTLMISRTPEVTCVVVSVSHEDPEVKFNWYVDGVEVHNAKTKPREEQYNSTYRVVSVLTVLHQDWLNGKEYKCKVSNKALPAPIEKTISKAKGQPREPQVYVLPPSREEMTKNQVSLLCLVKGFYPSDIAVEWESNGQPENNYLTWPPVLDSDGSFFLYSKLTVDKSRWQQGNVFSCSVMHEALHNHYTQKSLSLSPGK
- EC50 of γδ T-cell mediated cytotoxicity of H929 tumor cells [8]: 0.81 nM

B6: anti-CD33 antibody (clone C33B904) (antibody, V domains shown)
VH: EVQLVESGGGLVQPGRSLRLSCAASGFTFDDYAMHWVRQAPGKGLEWVSGIGWSGGSIVYADSVKGRFTISRDNAKNSLYLQMNSLRAEDTALYYCAKDSPYGDFFDYWGQGTLVTVSS
VL: DIVMTQSPDSLAVSLGERATINCKSSQTVFYSSNNKNYLAWYQQKPGQPPKLLISWASTRKSGVPDRFSGSGSGTDFTLTVSSLQAEDVAVYYCQHYYSTPYTFGQGTKLEIK
- EC50 [9]: ~134 nM
- EC50 [10]: 82.2 nM
- EC50 [11]: 16.4 nM

B7: anti-TRGV9/anti-BCMA bispecific antibody (VG9SB10SC1087_P19_C03-Fab RF, BCMA-scFv (BCMB519-scFv)) (BCV9B103.001) (bispecific antibody, human IgG1, kappa, L234A L235A)
heavy: QVQLQESGPGLVKPSQTLSLTCTVSGGSISSGGSYWSWIRQHPGKGLEWIGYIYNSGSTYYNPSLKSRVSMSVDTSKNQFSLKLSSVTAADTAVYYCARDSNYEWFFDLWGPGTLVTVSSASTKGPSVFPLAPSSKSTSGGTAALGCLVKDYFPEPVTVSWNSGALTSGVHTFPAVLQSSGLYSLSSVVTVPSSSLGTQTYICNVNHKPSNTKVDKKVEPKSCDKTHTCPPCPAPEAAGGPSVFLFPPKPKDTLMISRTPEVTCVVVSVSHEDPEVKFNWYVDGVEVHNAKTKPREEQYNSTYRVVSVLTVLHQDWLNGKEYKCKVSNKALPAPIEKTISKAKGQPREPQVYVYPPSREEMTKNQVSLTCLVKGFYPSDIAVEWESNGQPENNYKTTPPVLDSDGSFALVSKLTVDKSRWQQGNVFSCSVMHEALHNRFTQKSLSLSPGK
light: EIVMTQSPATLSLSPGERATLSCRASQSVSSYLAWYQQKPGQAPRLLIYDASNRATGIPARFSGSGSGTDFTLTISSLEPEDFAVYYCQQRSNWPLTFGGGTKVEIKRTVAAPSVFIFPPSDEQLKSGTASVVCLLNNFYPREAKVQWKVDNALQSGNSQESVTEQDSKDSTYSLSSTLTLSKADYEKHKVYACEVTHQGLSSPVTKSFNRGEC
scFv: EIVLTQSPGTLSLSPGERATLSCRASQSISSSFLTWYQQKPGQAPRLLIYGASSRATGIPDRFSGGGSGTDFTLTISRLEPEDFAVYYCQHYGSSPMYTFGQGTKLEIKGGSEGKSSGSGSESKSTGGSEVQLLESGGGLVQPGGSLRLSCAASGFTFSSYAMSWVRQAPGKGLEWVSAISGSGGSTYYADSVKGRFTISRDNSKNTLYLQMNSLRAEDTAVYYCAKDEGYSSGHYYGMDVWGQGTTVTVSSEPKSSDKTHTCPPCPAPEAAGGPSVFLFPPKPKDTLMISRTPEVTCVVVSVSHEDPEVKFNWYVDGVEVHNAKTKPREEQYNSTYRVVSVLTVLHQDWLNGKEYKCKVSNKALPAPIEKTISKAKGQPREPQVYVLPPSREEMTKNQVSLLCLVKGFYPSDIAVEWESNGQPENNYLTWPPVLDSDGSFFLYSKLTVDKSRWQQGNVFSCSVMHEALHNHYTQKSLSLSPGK
- EC50 of γδ T-cell mediated cytotoxicity of H929 tumor cells [12]: 5.84 nM
